Data from the DeepSol protein solubility set.

assay: soluble on expression in E. coli; label from the status in PepcDB or PDB records

Sequence | soluble on expression in E. coli
MGLISKNRGPCQVCHNTETTRRHFGIISCTACAAFFRRSIGMQYLCTAENRCTISFDRKFFCRACRYASCLKAGMKLELIRKQKNNIYLRFPDAASNQQNLVRDSMSPATSEGGQSSSSKTDEESDDPEYSKILKMYHDDLLQYYVKEVKKMMAEKRRGCEKNTLQIKTISDLMLITARQSGPSMEECLRCPGVDMLEKEDVEALLRYYRFSNIWVDSVLIDSVLESAKGDSHTDTDDRLSRFIQEVKSTLGSSLAHLNLNIYEFAAFKALCIWKLRFYETSFAQKIIAHEHYEGVTGALRNYYENCTELADMEIAIRIGDITLQIVTVQNTYHEMVRLYYQIGMPL | not soluble
MGSDKIHHHHHHMKVDWDHLQFFLVLARTKTLTNAARIIGVEHSTVARRIQALELALGTTLFKREATGYELTLEGMALVPRVEQMEQAFLQIEKPHQPLQGRVRIGTPEGFGTAFLARLLAEFSIQYPLLTIDLIPVPKMIKLSHREADIVVSIERPTSGPYIITRLSDYCLKIYGSQNYLAQNPPIRRLEDLTQHRFVNYIDDLVYSPELYCLERLPLKLNANFRSSSILAQQIAVSAGAGLAILPKFLADDKPELEEVLEQQVRFTHTFWMLTFVDLQHEPRIKLVWDYLRKQADKYQHLLVD | not soluble
MTIYDINFAELYQQHLIACNHYNLPPIKWDKKAVKMAENLVGKPSAYNQQLLQAMNVQTDEAVLDIGCGPGTFAVPLAQQGSTVYALDYSNGMLDCLAQFKQKFGLHHLTTFHKSWADNWDDVPQADVVLASRSTLVDDLDDMIEKLCAKAKKRVFLTSVTQRHFLDEGVFEAIGREDIGFPTYIYLLNRLYQKGIQANLNFIETESGCFQGESYEDLLASVEFSLGELSEKEKQGLKAFYDRKQANNEPISHGQKKWALIWWNVDRILEHHHHHH | soluble
MQEQLEKMFFLSAEFVEAVDARGMTEREKNVFFDTELFCKRYVKEVRPGEIGCTLSHQKCYRKLVESRDKYALILEDDIVIRHNIDTLVPEIEKLLNTDEPRVILLSGWYWYLGTKTIKQHYCLARVYDAFLTHAYIINREAASLLIEQRPFITADDWFYIRKKGVKLYAVLPHLLDQDWSGEYPTSINQEEKKRCPGLWKRKIEICFHSLLLKFLYIIKRFEKALEHHHHHH | not soluble
MAHHHHHHMNPHPVEPRDQIAELLVESPLFSFNCAHFIAFKGFRETLHGHNYNVSLRLRGNIQGDGYVIDFSILKEKVRKVCKQLDHHFILPMYSDVLNIQEVNDNFKITCEDNSEYSFPKRDCVQIPIKHSSTEEIGLYILNQLIEEIDLPFLKTRSVNYMEVTVSESPSQKATVHRNI | soluble
DLQNMDATNWLGNSVSEGFIHQFQRRGFKVVDFKTTGSIQVTQQGDFALSRDWQDLAQEQQIQYVLTGTMLRQEGGVLVNARVVGMQSRVVVATAQGFLPADRIGRDLDTLNSIRTQDGVLIRSDPTIRQPYTVILRP | not soluble
MVTAPPTDYFASFTTNDDALVLASVSSDAELELLNVWLRTHRREHPDSKVDVLQLPAADEPAPGDLARLVEELEADENRLVVPVRVFWVPGGLPTRLKVVALMSGRDTYRPPEILQRRILRKDPSRARVVAGEPAKVSELRKQWSETTVGENPRDFAHFVLRRAVLAIERVELRLLGPEYKSPRLVKPEMMASSRFREGLAKIPGATPEKAGEMLDELSTGWSRFSVDLIPSLGRAIFSRGFDPRIDYDRIEIEQMRHALEQHPAVLLFSHRSYLDGVIVPVAMQENRLPPVHTFAGINLSFGIMGPIFRHSGVIFLRRKLDDPLYKYVLRQYVGYLVEKRFNLNWSIEGTRSRTGKMLPPKLGLLAYVADAYLDGRSDDILLQPVSISFDQLHETAEYAEYARGGEKRPEGLSWLYNFVKAQGERNYGKIYVRFPEAVSMRQYLGEPHGPLVEDEAAKRLAMQKMAIEVAWRILRVTPVNATNLVSALLLTARGVALTLEQLHQALQDSLDYLEQKKTPVTNSAMRLRTLEGVRAAVDALSGGHPVTCVDTGREPVWRIAPENELEAAFYRNSLIHAFLETSLVELALAYAARTADAEGDPLQAFWTQVVRLRDLLKFDFYFADSAAFHQNVAEEMSWHADWEQQVRAGRDGIETLMRAKRPLLADAMLRPYFEAYTIVADVLRDAPAEIAEKDLTKLALGVGQQYVAQGRVRNNESVSALLFATARQVAADQGLLEHGPDLMEQRRAFRDELRGILRDLDTVDRYARELFAARERERRTKRDEAVLEHHHHHH | soluble
MSLKITAARVIITCPGRNFVTLKIETDQGVYGIGDATLNGRELSVVAYLAGTRRALPHRHGPAPHRGHLAVCLSRAYWRAPARLTMRAIAAVDMALWDIKAKMAGMPLYQLLGGRSRDGIMVYGHANGSDIAETVEAVGHYIDMGYKAIRAQTGVPGIKDAYGVGRGKLYYEPADASLPSVTGWDTRKALNYVPKLFEELRKTYGFDHHLLHDGHHRYTPQEAANLGKMLEPYQLFWLEDCTPAENQEAFRLVRQHTVTPLAVGEIFNTIWDAKDLIQNQLIDYIRATVVGAGGLTHLRRIADLASLYQVRTGCHGATDLSPVTMGCALHFDTWVPNFGIQEYMRHTEETDAVFPHDYWFEKGELFVGETPGHGVDIDEELAAKYPYKPAYLPVARLEDGTMWNWEGHHHHHH | not soluble
GSFTEGWVRFSPGPNAAAYLTLENPGDLPLRLVGARTPVAERVELHETFMREVEGKKVMGMRPVPFLEVPPKGRVELKPGGYHFMLLGLKRPLKAGEEVELDLLFAGGKVLKVVLPVEAR | soluble
MTRFLEKRHKKKKATNKERILSYKPIHAIEQENSFRSSRCSNQTVEVSAVEDSRSALVGFFESNEPSESVTLKGKRERQVRFADKTNTVGLLKESLEEKLLASKTLISQLKEENCRLKERLNEVKDQLELKEKIALVQQENNDLEAEVLEWKAKFYESESEKERILASRSRPKDGYEIVQESLAQQPGTTSFYDYKFRQLVHKLTRMNAIHSKHNDKEYHKCDIVNESKDRSITFELFIDEEQEEIEYVPVQLNGVSQKLPSYLQDNISFDVQNAPIFFTKIMHSLFSK | soluble
MARQTMNPSIRYLIGVDGGGTGTRIRLHASDGTPLAMAEGGASALSQGIAKSWQAVLSTLEAAFQQAGLPAAPASACAIGLGLSGVHNRQWAGEFESQAPGFARLSLATDGYTTLLGAHGGQPGIIVALGTGSIGEALYPDGSHREAGGWGYPSGDEASGAWLGQRAAQLTQMALDGRHSHSPLTRAVLDFVGGDWQAMMAWNGRATPAQFARLAPLVLSAARVDPEADALLRQAGEDAWAIARALDPQDELPVALCGGLGQALRDWLPPGFRQRLVAPQGDSAQGALLLLQRPSTRLEHHHHHH | soluble
MSLSTHYHAHKPNVPIIMEDVFGWVREGNAFQVRVWLDDHEHDLNVGDDHAFSLLHWAAKGGHVAIAEMLLSRGARVNSTNMGDDTSLHLAAAHGHRQIVVKLLSRKADVNATNEHGMTPLHYACFWGYEQIAEDLISCGAAVNVCNKKGMTPLDVCQPMCKNTILEIAQEHGQSPNDRVPFKDTTWKGTKSRTRDATLSRYTGVDVSSLNLITKIAESHSGELWRGKWQGNDIVARILNVQEVTARISRDFQTEFPALRIFAHPNICAVLAAANQPPNLVIISQYMPFGSLYNVLHEQSSVVIDHGQAVRFALDIARGMSYLHSLDPMLLRFYLSSKHVVVDEELTAKLSMADTKFSFQEVGKAYSPAWMSPEALSRAPEDLNIRAADMWSFAILLWELNTREVPFSDLPPMECGMKIALEGLRVHIPPGIARNMNRLMNICMNEDPGRRPNFDQIIPILERMIL | not soluble
AHHHHHHGSKAPICEVCLKTEDILCPADEKKLEEGIITELDVKISRMLYKLLGDADVEFKKAVEAGDLIVLIVGEGDVPIVIGKGGKNIKYLTRELGKRVRVIESTDDVKKLAVDLLYPAGVFGVNVVYKPDGGQYYKVLVFSRDKSKLPEKSEVLESILTQITGVETKISFI | soluble
RNVSFRMQPIRIPMGMIGGFIGGQIDEMISTSKDRRIDWSEVYSKDTLYGRGNSG | soluble
MTSFDAIVIGGGHNGLVAAATLAKAGRKVLVLEAESEVGGAARTEEFAPGFRVSSIAHLLNRLHPDVVKTLELETHGLQFARADFLPSAALSKDGPALMLHGAYGEVLTGASPSEQSAWKDLRAQLLRYAGILKPFLTRRPPDLAGMSLMETASLGQTALALKKLGKEDMRDFLRVLLMNVADLLDEQLRDDRLKGLLAFDATLGSHLGPRSPTSLLGLYYRLAGEAGGAAGAQVLPQGGMGAVVAAIRAAAEKAGVTIRTSVAAAKIIVEKGHAVGVTLGTGEELRARTVVSAINPATTFLDLVGPREIDTGFVRKVKNIRMKGDAAKLHLALDRSPQFTGADAAAHKGRLVIAPSPDHVERAFNPCKYGEFSPEPVLEITLPSLADPSLAPDGACVLSAVVQYAPYALKEGWAAGKPKFIKAVMAQLEAYAPGIGKSVVHAELLTPADIETRYRMPGGHWHHGELQADQMLISRPVSGWSGYDTPVEGLFLAGAGSHPGGGVSGAPGLNAARRIIAMKGLEHHHHHH | soluble
MSLQDDDFSLFKSEMRGVKRISVDRADTGKPRNDRQQLKQRQLNASVRNDEIRVDGLSDQFVIDVGPEDELSWARDGVQESQLRKLKQGLVPFDGSLDLHGMSVEKARQTLWDFLAEATRLEIRCVRVTHGKAARKDGRSPLVKSHVNTWLRQHPQVLGFTSCLPRHGGTGSVYVMLRRTMLEGRDEEGHHHHHH | soluble
MAVTQSPRNKVAVTGGKVTLSCNQTNNHNNMYWYRQDTGHGLRLIHYSYGAGSTEKGDIPDGYKASRPSQENFSLILELATPSQTSVYFCASGDLGQTNERLFFGHGTKLSVLGSADDAKKDAAKKDGQVRQSPQSLTVWEGETAILNCSYENSAFDYFPWYQQFPGEGPALLISILSVSDKKEDGRFTIFFNKREKKLSLHIADSQPGDSATYFCAAIDTNAYKVIFGKGTHLHVLP | soluble
MGSDKIHHHHHHMKVLVVDDDKLARKGLISIMDWKKYGFEVVGDVQNGRKALEFLKDNEVDIVFTDIDMPEIDGIELMKMCKKEYPEVKFVVFSMYEDFRYAQSALRLGALDYISKISFEGDECDRILELVERKYKENHSQKETRNEDSELIKRLEKAWMNTRWIFNDSEFNRLYELTRGVELRTAERVFIKSFHSLQKLTGEELEFPSLSSVDSMLEWVKQWKENLYQTCLQTDKTKDIYMFARVILYTDEHIEENLKSEEAAAQIGMSRSYFSTRFKEMTGDTFHNYVISRKMYAAAQKMAKGTENITQIASNLGYDNFYYFTKVFSKEYGCMPTEYVGRIKKCSI | not soluble
MAHHHHHHMPAVKQHLTGKASAAMRPTPSDAGAVLEPLTVRPSRVTTTTDHLTTSSAISTISVDTIRECGSAEDAYEAGKELGGVGPVFTGVAVPAEHPVAAAMPADAAELRHEEELKVIMCRYRPQSTEN | soluble
MGSDKIHHHHHHMTDSTIDALNKKLDRLIEAVGRLAPPPVPETDLAEADCFVWQADPGYLEPVRKVNRVDIGLIRGVDRVRDILVDNTERFAAGFAANNVLLWGARGMGKSSLVKAVHAEINAKSKSQKAKSDLPLKLIEIHREDIDTLPKLMGLLKAAPFRVILFCDDLSFDHDDTSYKSLKAALEGGVEGRPANVIFYATSNRRHLLPRDMIDNERSTAINPSEAVEEKVSLSDRFGLWLGFHKCSQDEYLEMVNAYASHHGLDIDPEQLRAEALEWATTRGSRSGRVAWQFTQDLAGRLGKPLKD | not soluble
